Experimental data taken from article PMC3994269.
Where “and” joins values, the source holds several entries; their conditions need not be identical. Identical values can stand only once.

What was measured:
[1] = biological target: Plasmodium falciparum heat shock factor binding protein (PfHSBP), endogenous (P. falciparum (endogenous in 3D7 parasites)) (UniProt Q8IIF8); assay: SDS-PAGE and immunoblot (SDS-resistant oligomers); P. falciparum lysate resolved on SDS-PAGE and probed with anti-PfHSBP antiserum; pre-immune serum as control
[2] = biological target: Plasmodium falciparum heat shock factor binding protein (PfHSBP), endogenous (P. falciparum (endogenous in 3D7 parasites)) (UniProt Q8IIF8); assay: immunoprecipitation, SDS-PAGE and phosphorimaging; lysate of [35S]-labelled P. falciparum (1% Triton X-100); anti-PfHSBP antiserum 1:25 at 4°C for 12 hours, Protein G beads; Protein G and pre-immune serum controls
[3] = biological target: Plasmodium falciparum heat shock factor binding protein (PfHSBP), endogenous (P. falciparum (endogenous in 3D7 parasites)) (UniProt Q8IIF8); assay: SEC; P. falciparum lysate on Superdex 200 10/300 GL in PBS; fractions immunoblotted for PfHSBP

Plasmodium falciparum heat shock factor binding protein (PfHSBP), endogenous (from UniProt Q8IIF8 1-113) (natural protein)
stoichiometry N [1]: 3 and 6 | stoichiometry N [2]: 6 | stoichiometry N [3]: 6
